Measured values as given in patent US11473089B2, “Aptamer for ADAMTS5 and use for aptamer for ADAMTS5” (RIBOMIC INC., priority 2017, dated 2022).

T1: ADAMTS5 (Homo sapiens, UniProt Q9UNA0)
T1 construct: purchased R&D systems
T1 sequence (Q9UNA0 262-930): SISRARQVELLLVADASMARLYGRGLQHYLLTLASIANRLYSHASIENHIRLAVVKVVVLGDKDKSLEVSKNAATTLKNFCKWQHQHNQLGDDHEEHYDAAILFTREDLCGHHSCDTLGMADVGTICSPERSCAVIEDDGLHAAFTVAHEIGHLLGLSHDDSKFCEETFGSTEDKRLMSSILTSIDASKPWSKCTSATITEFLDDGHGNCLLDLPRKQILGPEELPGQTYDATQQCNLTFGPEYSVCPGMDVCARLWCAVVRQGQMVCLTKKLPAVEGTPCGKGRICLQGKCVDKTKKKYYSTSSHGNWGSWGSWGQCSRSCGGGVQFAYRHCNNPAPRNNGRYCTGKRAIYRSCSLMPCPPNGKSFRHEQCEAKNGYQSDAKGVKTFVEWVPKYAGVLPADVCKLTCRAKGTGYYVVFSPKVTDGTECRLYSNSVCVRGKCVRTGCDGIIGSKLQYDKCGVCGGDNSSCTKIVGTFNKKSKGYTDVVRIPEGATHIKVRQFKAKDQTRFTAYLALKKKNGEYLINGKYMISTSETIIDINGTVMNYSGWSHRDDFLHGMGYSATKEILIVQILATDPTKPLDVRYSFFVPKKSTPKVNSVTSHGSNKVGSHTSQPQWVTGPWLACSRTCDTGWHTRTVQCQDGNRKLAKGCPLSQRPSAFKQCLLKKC


Legend:
ADAMTS5 [1] = target: T1, ADAMTS5; assay: ADAMTS5 enzyme inhibition, aggrecan G1-IGD-G2 cleavage, SDS-PAGE detection (evaluation method 1); assay type: biochemical
Description: Whether an aptamer having the nucleotide sequence shown in SEQ ID NO: 1 inhibits the enzyme activity of ADAMTS5 was evaluated by the following method. As a substrate of ADAMTS5, the G1-IGD-G2 domain of aggrecan (manufactured by R&D systems) was used. ADAMTS5 specifically cleaves in between the 392nd glutamic acid and the 393rd alanine in the G1-IGD-G2 domain and produces two fragments. These fragments have faster electrophoretic mobility than uncleaved G1-IGD-G2. Thus, the enzyme activity of ADAMTS5 can be measured by quantifying the band intensity of G1-IGD-G2 by SDS-PAGE electrophoresis. The assay was performed in a solution A buffer with a reaction mixture volume of 10 μL. First, a mixture (10 μL) of a nucleic acid and ADAMTS5 was prepared and incubated at 25° C. for 15 min. To a substrate solution (5 μL) diluted with solution A was added a mixture (5 μL) of the nucleic acid and ADAMTS5 to start the enzyme reaction. The final concentration of ADAMTS5 in the reaction solution was 5 nM, and the final substrate concentration was 50 μg/mL. The reaction solution was incubated at 37° C. for 2 hr, 2 μL of solution D was added, and the mixture was heated at 95° C. for 2 min to stop the enzyme reaction of ADAMTS5. Solution D contains 0.25 M tris (pH 6.8), 10% SDS, 50% glycerol, 0.25% bromo phenolblue, and 20% 2-mercaptoethanol. The heat-treated reaction solution was electrophoresed by 7.5% SDS-PAGE and stained with SYPRO Orange (manufactured by Sigma-Aldrich). The staining was performed according to the manual of Sigma-Aldrich and detected using STORM840 manufactured by GE Healthcare. For analytical curves, uncleaved substrates 1000 ng, 400 ng, 160 ng, 64 ng, 25.6 ng, 10.24 ng, and 4.1 ng were electrophoresed, and staining and detection were performed in the same manner. The amount of uncleaved substrate in each reaction solution was quantified from the band intensity and the standard curve. The substrate cleavage efficiency of ADAMTS5 under these reaction conditions was 80-100%. The inhibition rate of the test substance was calculated using the following equation. inhibition rate (%)=(Sapt−SE)/(S0−SE)×100 wherein Sapt is the amount of an uncleaved substrate with the addition of a test substance, SE is the residual amount of an uncleaved substrate with the addition of ADAMTS5, and S0 is the residual amount of an uncleaved substrate without the addition of ADAMTS5.
The concentration of an inhibitor necessary for inhibiting 50% of the enzyme activity (IC50) was determined. IC50 is a mean of four measurements.

ADAMTS5 [2] = target: T1, ADAMTS5; assay: binding activity to ADAMTS5 by surface plasmon resonance (Biacore T100); settings: Table 7
Description: The binding activity of aptamers having the nucleotide sequences shown in SEQ ID NOs: 1 and 2 to ADAMTS5 was evaluated by the surface plasmon resonance method. Biacore T100 manufactured by GE Healthcare was used for the measurement. The SA chip was used as the sensor chip, which had streptavidin immobilized thereon. About 800 RU of a 16-nucleotide Poly dT with biotin at the 5′-terminal was bound on the chip. […] ADAMTS5 for analyte was prepared at 0.1 μM, and injected at a flow rate of 30 μL/min for 60 sec. As the running buffer, solution C was used. The solution C is a mixed solution of 300 mM sodium chloride, 5.4 mM potassium chloride, 1.8 mM calcium chloride, 0.8 mM magnesium chloride, 20 mM tris (pH 7.6), and 0.05% Tween20.
SEQ ID NO: 2 has a sequence with one base deletion from the continuous 4 G bases in the consensus sequence, and it was shown from the measurement results of the binding activity that the continuous 4 G bases in the consensus sequence are important for the activity of aptamers. Sensorgram showing the binding of an aptamer having the nucleotide sequence shown in SEQ ID NO: 1 to ADAMTS5 is presented in FIG. 2. In Table 1, “++” indicates those with the proportion of ADAMTS5 binding amount (RU value) to the amount of aptamer immobilized on the SA chip (RU value) of not less than 40%, “+” indicates those with the proportion of not less than 10% and less than 40%, and “−” indicates those with the proportion of less than 10%.
The binding activity and enzyme inhibitory activity of aptamers having nucleotide sequences shown in SEQ ID NOs: 16-25 to ADAMTS5 were measured. The binding activity was evaluated by the surface plasmon resonance method. For the measurement, a method similar to that in Example 1 was used. The enzyme inhibitory activity was measured by a method similar to that in Example 1. […] The negative control nucleic acid refers to the nucleic acid pool used in the first round of the SELEX method. The “++” indicates those with the proportion of ADAMTS5 binding amount (RU value) to the amount of aptamer immobilized on the SA chip (RU value) of not less than 40%, and “+” indicates those with the proportion of less than 40%. […] “n.d.” means not determined.
The binding activity of the nucleic acids shown in SEQ ID NOs: 30-45 to ADAMTS5 was measured. The binding activity was evaluated by the surface plasmon resonance method. In the Table, “++” indicates those with the proportion of ADAMTS5 binding amount (RU value) to the amount of aptamer immobilized on the SA chip (RU value) of not less than 40%, “+” indicates those with the proportion of not less than 10% and less than 40%, and “−” indicates those with the proportion of less than 10%.

| Molecule | inhibitory activity % 10 nM aptamer (ADAMTS5 [1]; Table 7) | inhibitory activity % 30 nM aptamer (ADAMTS5 [1]; Table 8) | binding activity (ADAMTS5 [2]) | inhibitory activity % 30 nM aptamer (ADAMTS5 [1]; Table 7) | inhibitory activity % 20 nM aptamer (ADAMTS5 [1]; Table 7, 20 nM aptamer) |
| --- | --- | --- | --- | --- | --- |
| 21 (nucleic acid, 2'-fluoro at CU, RNA at AG, backbone not given here) GGGACAUGCGUAACUAUAUAGGGGCCUCCACAGCUGUAAAGCUUGGACUUAAACCAUAUAGAGUCCAGAUCGAGCA | 56.9% | 78.8% | ++ (proportion of ADAMTS5 binding amount (RU value) to the amount of aptamer immobilized on the SA chip (RU value) of not less than 40%) |  |  |
| 20 (nucleic acid, aptamer; 2'-fluoro at CU, RNA at AG, backbone not given here) GGGACAUGCGUAACUGUAUAGGGGCCUCCGCAGCUAUUCAGCUCGGACAUAAACCAUACAGUCCAGAUCGAGCA | 15.5% |  | + (proportion of less than 40%) | 111.1% |  |
| 19 (nucleic acid, aptamer; 2'-fluoro at CU, RNA at AG, backbone not given here) GGGACAUGCGUAACUUGAUAGGGGCCUCCACAGCUGAUAAGCUUGGACUCAAACCAUCAAGUCCAGAUCGAGCA | 2.9% |  | + (proportion of less than 40%) | 93.5% |  |
| 23 (nucleic acid, aptamer; 2'-fluoro at CU, RNA at AG, backbone not given here) GGGACAUGCGUAACUGUAUAGGGGCCUCCACAGCUGAAAAGCUUGGACUCAAACCAUACAGUCCAGAUCGAGCA | 14.5% |  | ++ (proportion of ADAMTS5 binding amount (RU value) to the amount of aptamer immobilized on the SA chip (RU value) of not less than 40%) |  |  |
| 17 (nucleic acid, aptamer; 2'-fluoro at CU, RNA at AG, backbone not given here) GGGACAUGCGUAACUGUAUAGGGGCCUCCACAGCUGAAAAGCUUGGACUCAAACCAUACAGUCCAGAUCGAGCA | 12.3% |  | + (proportion of less than 40%) | 88.2% |  |
| 25 (nucleic acid, aptamer; 2'-fluoro at CU, RNA at AG, backbone not given here) GGGACAUGCGUAACUGCAUAGGGGCCUCCACAGCUAUUCAGCUUGGACACAAACCAUGCAGUCCAGAUCGAGCA |  |  | ++ (proportion of ADAMTS5 binding amount (RU value) to the amount of aptamer immobilized on the SA chip (RU value) of not less than 40%) |  | 72.1% |
| 16 (nucleic acid, aptamer; 2'-fluoro at CU, RNA at AG, backbone not given here) GGGACAUGCGUAACUUGAUAGGGGCCUCCGCAGCUGAUCAGCUCGGACUCAAACCAUCAAGUCCAGAUCGAGCA | 46.3% |  | + (proportion of less than 40%) | 93.6% |  |
| 22 (nucleic acid, aptamer; 2'-fluoro at CU, RNA at AG, backbone not given here) GGGACAUGCGUAACUGCAUAGGGGCCUCCACAGCUAUUCAGCUUGGACACAAACCAUGCAGUCCAGAUCGAGCA | 14.8% |  | ++ (proportion of ADAMTS5 binding amount (RU value) to the amount of aptamer immobilized on the SA chip (RU value) of not less than 40%) |  |  |
| 18 (nucleic acid, aptamer; 2'-fluoro at CU, RNA at AG, backbone not given here) GGGACAUGCGUAACUGCAUCGGGGCCUCCGCAGCUGUUAAGCUCGGACUCAAACCAUGCAGUCCAGAUCGAGCA | 2.9% |  | + (proportion of less than 40%) | 90.4% |  |
| 24 (nucleic acid, aptamer; 2'-fluoro at CU, RNA at AG, backbone not given here) GGGACAUGCGUAACUUGAUAGGGGCCUCCACAGCCGGUAGGCUUGGACUCAAACCAUCAAGUCCAGAUCGAGCA | 20.2% |  | ++ (proportion of ADAMTS5 binding amount (RU value) to the amount of aptamer immobilized on the SA chip (RU value) of not less than 40%) |  |  |
